The source of these data is patent US20200031952A1 (CLOSED JOINT STOCK COMPANY BIOCAD, published 2020).

As usually defined, the Kd is the free concentration of one partner at which half of the binding sites on the other are occupied at equilibrium, for simple one-to-one binding.

Some results are limits rather than exact numbers.

Experiment [1] deals with T1, human IL-17A (human, UniProt Q16552 24-155, limits assumed).
T1 construct: Used as analyte in the Octet tests, as immobilised antigen in ELISA and as cytokine in the HT1080 cell test; also called human recombinant IL-17A; Interleukin 17
The experiment in a line: cell-based or functional assay.

A further experiment addresses T2, rat IL-17A (rat, UniProt Q61453 18-150, limits assumed).
T2 sequence (looked up): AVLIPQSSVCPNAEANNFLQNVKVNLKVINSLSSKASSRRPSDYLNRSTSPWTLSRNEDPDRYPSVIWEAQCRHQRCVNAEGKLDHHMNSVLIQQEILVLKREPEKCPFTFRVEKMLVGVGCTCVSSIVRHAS
The experiment in a line: BLI (OctetRed 96), BCD109 immobilised on AR2G sensors, IL-17A as analyte.

Experiment [2] concerns the target T1, human IL-17A. The experiment in a line: BLI (OctetRed 96), BCD109 on AR2G sensors, 1:1 model; analyte 17,1 nM (heading: 'Human ... IL17 Fc'); Full R^2 0,775434.
Procedure: (§1) The test was conducted at a temperature of 30° C. and using PBS with 0.1% Tween-20 and 0.1% BSA as a working buffer.
(§2) Binding curves (after subtracting a reference signal) were analyzed using Octet Data Analysis software (Version 7.0) in accordance with the standard procedure and using 1:1 interaction model.
In experiment [3] the target is T1, human IL-17A. The experiment in a line: BLI (OctetRed 96), BCD109 on AR2G sensors, 1:1 model; analyte 34,3 nM (heading: 'Human ... IL17 Fc'); Full R^2 0,744563.
Procedure: as §1, §2
In experiment [4] the target is T1, human IL-17A. The experiment in a line: BLI (OctetRed 96), BCD109 on AR2G sensors, 1:1 model; analyte 68,6 nM (heading: 'Human ... IL17 Fc'); Full R^2 0,383582.
Procedure: as §1, §2
Experiment [5] addresses T3, monkey IL-17A (monkey).
T3 chain: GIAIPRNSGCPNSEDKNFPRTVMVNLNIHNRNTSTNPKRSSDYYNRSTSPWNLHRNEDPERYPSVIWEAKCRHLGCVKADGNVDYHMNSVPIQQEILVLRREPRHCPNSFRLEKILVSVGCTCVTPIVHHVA
Nature of the experiment: BLI (OctetRed 96), BCD109 on AR2G sensors, 1:1 model; analyte 17,2 nM (heading: 'Macaque ... IL17 Fc'); Full R^2 0,753773.
Procedure: as §1, §2

Experiment [6] addresses T3, monkey IL-17A. The experiment in a line: BLI (OctetRed 96), BCD109 on AR2G sensors, 1:1 model; analyte 34,4 nM (heading: 'Macaque ... IL17 Fc'); Full R^2 0,061979.
Procedure: as §1, §2
Experiment [7] has as its target T3, monkey IL-17A. Nature of the experiment: BLI (OctetRed 96), BCD109 on AR2G sensors, 1:1 model; analyte 68,7 nM (heading: 'Macaque ... IL17 Fc'); Full R^2 0,672159.
Procedure: as §1, §2

Procedure for rat IL-17A: as §1, §2

Turning to “AIN457 (anti-IL-17A antibody by Novartis)”, the IC50, picomole as defined by the cell IL6 test with human IL-17A [1] is 1100 picomole.

B1: BCD109 (antibody, V domains shown)
VH: QVQLVQSGGGLVQAGGSLRLSCAASGGTFATSPMGWLRQAPGKGTEFVAAISPSGGDRIYADSVKGRFTISRDNAGYFIYLQMNSLKPEDTAVYYCAVRRRFDGTSYYTGDYDSWGQGTLVTVSS
VL: EIVLTQSPGTLSLSPGERATLSCRASQSVSSSYLAWYQQKPGQAPRLLIYDASSRATGIPDRFSGSGSGTDFTLTISRLEPEDFAVYYCQQYSYSPVTFGQGTKVEIKR
notes: IgG1, transiently expressed; also called BCD109 antibody; BCD109 candidate; copies: 2 + 2
For the molecule B1, the binding result with rat IL-17A was “no binding (tested: 126 nM to 2 nM titrated)”. The Kd is 4.4 pM with human IL-17A [2]; less than 1 pM with human IL-17A [3]; less than 1 pM with human IL-17A [4]; less than 1 pM with monkey IL-17A [5]; less than 1 pM in the experiment with monkey IL-17A [6]; less than 1 pM in the experiment with monkey IL-17A [7].
